According to the supplement of paper PMC12764529:
± gives the half width of the 95% confidence interval.

test: folding stability dG unfold from chymotrypsin proteolysis; higher = more stable
Summary of the method: (§1)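 Unfolding free energy was derived, per protease or combined, against a sequence-predicted unfolded-state K50 and a shared folded-state K50, starting from K50 inferred by Bayesian fitting of sequencing counts. Digestion with trypsin and chymotrypsin was carried out on designed mini-proteins under 80 residues without cysteine in a PA-tagged cDNA display construct. Only designs with AlphaFold2 dimer inter-PAE above 15 were kept.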

Sequence | folding stability dG unfold [kcal/mol]
SAGGMTTTVTVTEDPATGTLTVPITIPRLDAEGNPTTEVLTVTLPASPEAEAAIAALAAALGIPAAASAGGS [r8_381_JUSTAS] | 0.943 ± 0.067
SAGGSAGGSAGMVTEESLEIEPGKGLIVRTVTDRRESGIVTETEKTPVSEAEREAIRKALSAGGSAGGSAGG [r11_47_JUSTAS] | 0.0861 ± 0.056
SAGGSAGGSAGGMTTLVLPAEVEPVPDGVRVRLPDGEDLYVPPGERVERTPDRVEVTLGSAGGSAGGSAGGS [r10_305_JUSTAS] | 0.383 ± 0.058
SAGGMTVVSTETDTATGRPVRTVRLPPEASLRELAALDGWVRLVDPAPDREVELPAEDPEAVVEALLASAGG [r13_604_JUSTAS] | 0.0196 ± 0.13
SAGGSAMKIEEEEVEVPLSDEELEALKKNPGKTVKVKVIKIEIEMPEEEKKRLAKELEEKFNIKIESAGGSA [r15_347_TrROS_Hall] | 0.0343 ± 0.2
SAGGGMEEVAKKLGVPEDARLEVLKVERYYYTREVRDPLFEEGKPVGEKIIPRPYYSEKVDYKLFDKPSAGG [r13_482_JUSTAS] | -0.288 ± 0.32
SAGGSAGGSEKLEIVKAFVFENEVILIVKKEKEYYVLKLKFKDGKIESLEFIGPVPENDPSLGSAGGSAGGS [r12_154_TrMRF] | 4.92 ± 0.16
SAPVRTVTLNVPVERDAAGNLVPVSPEEIVAELEKEGYPREEIEVKNVTETTIPVTIEVDLVNGKMRVLGSA [r9_225_JUSTAS] | -0.326 ± 0.61
SAGATESETFALPGGEEVTVTTTYTPLPGDALRTTVTTWTTTLGPSGPAVTTATTTTTYPPELAAAGASAGG [r19_63_JUSTAS] | 0.0387 ± 0.14
SAGRIKSIQINPYENPNGQYPITVRVRWPGNGKERDRNFPMSPNDARNQAKELAKELPGKPLEIDEITSAGG [r19_317_TrROS] | -0.545 ± 0.15
SAGGSAGGSSMEVVTPIERPVDVTSPENGEVVKVRVKTLVGKDPNAWTTETTLTLPDGTPVALSAGGSAGGS [r12_283_JUSTAS] | 0.988 ± 0.11
SAGGSALKVKSVHQNPDDNYYMITVTIPGPDKAPREIMFPSPEDLEDKLDNLPPGIESVEIHPMKPSAGGSA [r15_589_TrROS] | -0.203 ± 0.19
SAGGSAGGSAGGMAVVVDSPEEAEEVIEELERSFPALGAKVVVPRVQVGDKLVLPLGLELSAGGSAGGSAGG [r7_588_TrMRF] | 0.0463 ± 0.068
SAGGSAGGSAMKLLETKVSRSLVPETGVVVTPVTTTTLGPGGKREVIEETEVRVLPPDAPPPSAGGSAGGSA [r18_95_JUSTAS] | -0.625 ± 0.19
SAGGSGSIVIKSIEPRLRLERLPNGELREVKEVEVDIEVEVDPETAPEEEIEAVREEAEKLAEELSSAGGSA [r2_40_JUSTAS] | 0.713 ± 0.082
SAGGSAGGSAGPRRFMFQIPADEVKLEFPGGAKVTDVEEDPDGYRRVMIEIPPGADPELKSAGGSAGGSAGG [r17_48_TrROS] | 0.142 ± 0.32
SAGGSAGGSAGGLLRAPDGSTAIVVRDASPETVARALHELNPNAVIVVAPIPNVAVIYLDSAGGSAGGSAGG [r7_370_TrMRF] | 0.178 ± 0.1
SALDPAAGTVTATVTRPVTLPDGRTVPVTRPVRVPVTYDVVVRDPETGEVVRAADYDPETGRLRDASAASAG [r14_122_TrMRF] | 0.548 ± 0.37
SAGKVLEELGYELVEEKEEEIGDVKIITATFPVGESPVVVTAEVTEKKEDDKPIVKVKVTVTPLPPEAPSAG [r5_516_JUSTAS] | 0.977 ± 0.17
SAGGSAGGSAAPDLVTETETRTHPETGLVITRERVTLPSTGTTEERTVVTDPETGVTTTEKSSAGGSAGGSA [r18_383_JUSTAS] | 0.294 ± 0.038

Sequence | folding stability dG unfold [kcal/mol]
SAGGSAGGSAGMGSTSTSTSITPTPEGRIVVDTTTTFTDPGGVPVGSTTTTTTLPPGAAASAGGSAGGSAGG [r11_898_JUSTAS] | 0.242 ± 0.066
SAYYKIRWNNGREIELKDMPIEDLEKYFPGGPVEIEPVPPVPVVRIESWEQANDLAEQNPPNHTIIVMDSAG [r14_445_TrROS] | -0.476 ± 0.83
SAGGSAGGSAGAYSATPVEERRLPDGSTLVRERVTDPATGTPALREVLVTDEGVEERLLPSAGGSAGGSAGG [r11_991_JUSTAS] | 0.415 ± 0.098
SAGGSAGGSAGGSPRHYYVEIEFPNGRKMSIPIESPEEALDYLEDHNYPIKDVELHPLKSAGGSAGGSAGGS [r4_213_TrROS] | 0.0167 ± 0.25
SAGGSAGGSAGGSSVYTSPSKPIAITSRTLVPESNLVRVEAVDPSGAPIEGIIPPSATLGSAGGSAGGSAGG [r7_427_JUSTAS] | -0.114 ± 0.27
SAGGSAKTIVIPAEDLTPEEIKALAEENKDKIVIYNKKTKKVVTIEVKDGKITKVEEFPVSEEELKSAGGSA [r15_751_TrROS_Hall] | 0.173 ± 0.3
SAGMPADTFIELNITITVPSEEYEADPAAVKAAADAAIAAAKAAGLPVDAATFTFERVPPVDPNNPRVGSAG [r5_979_JUSTAS] | -0.605 ± 0.2
SAGGMTIVSSGPSIEQALQEAAEAGGDATVIYKEPESNTIITLDVKYDPAPRTITVLSETETPVPPLLSAGG [r13_309_JUSTAS] | 0.758 ± 0.079
SAGDWIREAIKKAGYDNVEIEEIQPNPNGGVSIVIQPSPGMPREQQRRAQEEIVDALREESPDFKIHIHSAG [r5_101_TrROS] | 0.584 ± 0.087
MTTETLEEEEIPEEGIRIETVRTTDASGKPSTETVVTYEEVPLEPENTAPPVKFDDKGKRYNPGIGLEGLDS [r1_270_JUSTAS] | -0.664 ± 0.24
SADTLTVSDLMHKLMEEERKKNPEPWSPEDMQEWAKTAARKLADKEGIPIKDVEVEPTDGYPSITVKVPSAG [r14_147_TrROS] | -0.691 ± 0.73
SAGGSAGGSAGGSPLTLTRTLTLTRTTTDPDVPGTTTTETRTLTLTTELTLPPLPPGTPSAGGSAGGSAGGS [r4_231_TrROS_Hall] | 0.588 ± 0.18
TIKELAKKLGGPITVETEQYPIENPDGNPYYITDIEVQVNPNDGSLRINYEVYNPGNGKKQEEEDTIPLDDS [r1_448_TrROS] | -0.708 ± 0.42
SAGGGSMVIPVSPEEKEAALKLLEALPSKDVKVTVTDPATGTTTTLTPEEAKKLIEATDTPLVLTLSSAGGS [r16_263_JUSTAS] | 2.92 ± 0.08
SAGGSAGGSAGGGMEFSTVTVKRTLKTLGKTEVTTVPVVNPVPPPPPLGPENIARSRGVLSAGGSAGGSAGG [r7_79_JUSTAS] | -0.0494 ± 0.21
SAGGSAGGSAGMRLLTEEIVVEQFFYETGETRLTVLTKEILVVPPRPVPVPLPEGGLRLLSAGGSAGGSAGG [r11_307_JUSTAS] | 0.925 ± 0.11
SAGGSAGGSAGGDEILELERIPETGELVLRRITPDGEGFRIEEEVVPVGPELAEALPEGSAGGSAGGSAGGS [r10_291_TrMRF] | -0.279 ± 0.34
SAGRRKVEIPIPFDDPGQAMSADELADELRELGLKPGHEPKVEPHPDGYMRVKFEVPGPEVTIHIPMWDSAG [r5_144_TrROS] | 0.747 ± 0.16
SGMTIEVEKEIEIYDPEKGVKIGSVKVKVLVPTSYSPEEIPEIAEKEIKKAKEELEKPEPPEVNEDGTLKSA [r9_454_JUSTAS] | 0.751 ± 0.035

test: folding stability dG unfold (combined trypsin and chymotrypsin); higher = more stable
Summary of the method: as §1

Sequence | folding stability dG unfold [kcal/mol]
SAGGSAGGSAGGSMVLYERVPASELPPGKGETLLIREVTVEKLPGNRIILNEGVKVIPPSAGGSAGGSAGGS [r4_444_JUSTAS] | -0.831 ± 0.24
SAGGMTTTVTVTEDPATGTLTVPITIPRLDAEGNPTTEVLTVTLPASPEAEAAIAALAAALGIPAAASAGGS [r8_381_JUSTAS] | 0.369 ± 0.1
SAGGSAGGSAGMVTEESLEIEPGKGLIVRTVTDRRESGIVTETEKTPVSEAEREAIRKALSAGGSAGGSAGG [r11_47_JUSTAS] | -0.201 ± 0.11
SAGGSAGGSAGGMTTLVLPAEVEPVPDGVRVRLPDGEDLYVPPGERVERTPDRVEVTLGSAGGSAGGSAGGS [r10_305_JUSTAS] | -0.448 ± 0.25
SAGGMTVVSTETDTATGRPVRTVRLPPEASLRELAALDGWVRLVDPAPDREVELPAEDPEAVVEALLASAGG [r13_604_JUSTAS] | -0.504 ± 0.22
